Measurements taken from patent US20070092518A1 (published 2007).

Biological target: T1, human tumor necrosis factor-α (rHuTNF-alpha, Biosource) (human, UniProt P01375 77-233)
T1 construct: Bought recombinant protein coated on ELISA plates; The TNFα of the Biacore assay is not described further; also called TNFα; human TNFα
Assay: solid-phase ELISA, Fab lysate on coated rHuTNF-alpha
Protocol: The Fab libraries were cloned into pTrcHis2A (Cat. No. V365-20, Invitrogen, Carlsbad, Calif.). Proteins were expressed in E. coli and solid-phase ELISA was used to assess Fab binding to human TNFα. Briefly, 96-well plates were coated overnight at 4° C. with 1 μg/ml of rHuTNF-alpha (Biosource, Camarillo, Calif.) in Carbonate-bicarbonate buffer, pH9.4. After washing in PBS with 0.05% (w/v) Tween-20, the wells were blocked with 1% (w/v) BSA in PBS for 1 hour at room temperature. After washing, plates were incubated with transformed E. coli cell lysate diluted in the assay buffer (1% BSA and 0.05% Tween-20 in 10 mM PBS) for 2 hours at room temperature. Various concentrations of infliximab (0.5, 1 and 2 ng/ml) were used as positive anti-Human Kappa Light Chain Biotin/anti-penta-His Biotin control. Plates were washed and incubated with ImmunoPure Goat Anti-Human Kappa Chain, Biotin Conjugated (Cat. No. 31780, Pierce Biotechnology, Rockford, Ill.) and Penta-His Biotin Conjugate (Cat. No. 34440, QIAGEN, Valencia, Calif.) diluted 1:2000 in the assay buffer for 1 hour at room temperature. Following another washing step, plates were probed for 1 hour at room temperature with 100 μL/well of Streptavidin POD (Cat. No. 1089153, Roche Applied Science, Indianapolis, Ind.) diluted 1:4000 in the assay buffer. Plates were further washed and then incubated with 3,3′,5,5′-tetramentylbenzidine (TMB, Cat. No. 34028, Pierce Biotechnology) for 30 minutes. Substrate development was stopped by addition of 100 μL/well TMB Stop Solution (Cat. No. 50-85-05, KPL, Gaithersburg, Md.) and the absorbance was measured at 450 nm via an automated plate spectrophotometer.

T1 sequence (P01375 77-233 limits assumed): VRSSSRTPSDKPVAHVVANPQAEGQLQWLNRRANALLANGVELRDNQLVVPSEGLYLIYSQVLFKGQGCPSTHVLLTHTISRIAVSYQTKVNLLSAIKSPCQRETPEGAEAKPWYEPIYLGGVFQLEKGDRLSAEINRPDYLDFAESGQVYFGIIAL

B1: SEQ ID NO 121 (Fab, V domains shown)
VH: EVQLVESGGGLVQPGGSLRLSCAASQFTFSNHYMNWVRQAPGKGLEWIGEIRSKSINSATHYAESVKGRFIISRDDNGNDLYLEMNSLKTEDTAEYYCAQNYYGSTYDYWGQGTLVTVS
VL: EIVLTQSPDFQSVTPKEKVTITCRASQFVGSSIHWYQQKPDQSPKLLIKYASESMSGVPSRFSGSGSGTDFTFTISSLEAEDAATYYCQQSHSWPFTFGPGTKVDIK
notes: Fab, E. coli lysate
- binding result: binds

B2: SEQ ID NO 27 (Fab, V domains shown)
VH: EVQLVESGGGLVQPGGSLRLSCAASQFIFSNHYMNWVRQAPGKGLEWIGEIRSKSSNGATHYAESVKGRFIISRDDNKNDLYLEMNSLKTEDTAEYYCAQNYYGSTPDYWGQGTLVTVS
VL: EIVLTQSPDFQSVTPKEKVTITCRASQFVGSSIHWYQQKPDQSPKLLIKYASESMSGVPSRFSGSGSGTDFTFTISSLEAEDAATYYCQQSHSWPFTFGPGTKVDIK
notes: Fab, E. coli lysate
- binding result: binds

B3: SEQ ID NO 11 (Fab, V domains shown)
VH: EVQLTESGGGLVQPGGSLRLSCAASGFIFSNHWMNWVRQAPGKGLEWIGEIRSKSINGATSYAESVKGRFIISRDDNKTSLYLEMNSLKTEDTAEYYCAQNYYGSTYDYWGQGTLVTVS
VL: EIVLTQSPDFQSVTPKEKVTITCRASQFVGSSIHWYQQKPDQSPKLLIKYASESMSGVPSRFSGSGSGTDFTFTISSLEAEDAATYYCQQSHSWPFTFGPGTKVDIK
notes: Fab, E. coli lysate
- binding result: binds

B4: SEQ ID NO 10 (Fab, V domains shown)
VH: EVQLTESGGGLVQPGGSLRLSCRASGFIFSNHYMNWVRQAPGKGLEWIGEIRSKSINSATSYAESVKGRFIISRDDNKNDLTLEMNSLKTEDTAEYYCARNYYGSTYDYWGQGTLVTVS
VL: EIVLTQSPDFQSVTPKEKVTITCRASQFVGSSIHWYQQKPDQSPKLLIKYASESMSGVPSRFSGSGSGTDFTFTISSLEAEDAATYYCQQSHSWPFTFGPGTKVDIK
notes: Fab, E. coli lysate
- binding result: binds

B5: SEQ ID NO 4 (Fab, V domains shown)
VH: EVQLTESGGGLVQPGGSLRLSCRASGFIFSNHWMNWVRQAPGKGLEWIGEIRSKSSYSATSYAESVKGRFIISRDDNKTSLYLEMNSLKTEDTAEYYCAQNYYGSTYDYWGQGTLVTVS
VL: EIVLTQSPDFQSVTPKEKVTITCRASQFVGSSIHWYQQKPDQSPKLLIKYASESMSGVPSRFSGSGSGTDFTFTISSLEAEDAATYYCQQSHSWPFTFGPGTKVDIK
notes: Fab, E. coli lysate
- binding result: binds

B6: SEQ ID NO 18 (Fab, V domains shown)
VH: EVQLVESGGGLVQPGGSLRLSCRASQFTFSNHYMNWVRQAPGKGLEWIGEIRSKSSNGATSYAESVKGRFIISRDGNGNSLTLEMNSLKTEDTAEYYCARNYYGSTYDYWGQGTLVTVS
VL: EIVLTQSPDFQSVTPKEKVTITCRASQFVGSSIHWYQQKPDQSPKLLIKYASESMSGVPSRFSGSGSGTDFTFTISSLEAEDAATYYCQQSHSWPFTFGPGTKVDIK
notes: Fab, E. coli lysate
- binding result: binds

B7: SEQ ID NO 7 (Fab, V domains shown)
VH: EVQLTESGGGLVQPGGSLRLSCAASQFTFSNHWMNWVRQAPGKGLEWIGEIRSKSSNSATHYAESVKGRFIISRDDNKTDLYLEMNSLKTEDTAEYYCAQNYYGSTYDYWGQGTLVTVS
VL: EIVLTQSPDFQSVTPKEKVTITCRASQFVGSSIHWYQQKPDQSPKLLIKYASESMSGVPSRFSGSGSGTDFTFTISSLEAEDAATYYCQQSHSWPFTFGPGTKVDIK
notes: Fab, E. coli lysate
- binding result: binds

B8: SEQ ID NO 24 (Fab, V domains shown)
VH: EVQLTESGGGLVQPGGSLRLSCAASGSIFSNHWMNWVRQAPGKGLEWIGEIRSKSINGATSYAESVKGRFIISRDDNGNSLTLEMNSLKTEDTAEYYCAQNYYGSTPDYWGQGTLVTVS
VL: EIVLTQSPDFQSVTPKEKVTITCRASQFVGSSIHWYQQKPDQSPKLLIKYASESMSGVPSRFSGSGSGTDFTFTISSLEAEDAATYYCQQSHSWPFTFGPGTKVDIK
notes: Fab, E. coli lysate
- binding result: binds

B9: SEQ ID NO 14 (Fab, V domains shown)
VH: EVQLTESGGGLVQPGGSLRLSCAASQFTFSNHWMNWVRQAPGKGLEWIGEIRSKSIYGATHYAESVKGRFIISRDGNGNDLYLEMNSLKTEDTAEYYCARNYYGSTPDYWGQGTLVTVS
VL: EIVLTQSPDFQSVTPKEKVTITCRASQFVGSSIHWYQQKPDQSPKLLIKYASESMSGVPSRFSGSGSGTDFTFTISSLEAEDAATYYCQQSHSWPFTFGPGTKVDIK
notes: Fab, E. coli lysate
- binding result: binds

B10: SEQ ID NO 13 (Fab, V domains shown)
VH: EVQLTESGGGLVQPGGSLRLSCAASGSIFSNHYMNWVRQAPGKGLEWIGEIRSKSSNSATHYAESVKGRFIISRDDNKTDLYLEMNSLKTEDTAEYYCARNYYGSTYDYWGQGTLVTVS
VL: EIVLTQSPDFQSVTPKEKVTITCRASQFVGSSIHWYQQKPDQSPKLLIKYASESMSGVPSRFSGSGSGTDFTFTISSLEAEDAATYYCQQSHSWPFTFGPGTKVDIK
notes: Fab, E. coli lysate
- binding result: binds

B11: SEQ ID NO 5 (Fab, V domains shown)
VH: EVQLTESGGGLVQPGGSLRLSCAASQFTFSNHWMNWVRQAPGKGLEWIGEIRSKSINSATHYAESVKGRFIISRDDNKNSLTLEMNSLKTEDTAEYYCARNYYGSTYDYWGQGTLVTVS
VL: EIVLTQSPDFQSVTPKEKVTITCRASQFVGSSIHWYQQKPDQSPKLLIKYASESMSGVPSRFSGSGSGTDFTFTISSLEAEDAATYYCQQSHSWPFTFGPGTKVDIK
notes: Fab, E. coli lysate
- binding result: binds

B12: SEQ ID NO 22 (Fab, V domains shown)
VH: EVQLVESGGGLVQPGGSLRLSCRASGSTFSNHWMNWVRQAPGKGLEWIGEIRSKSSNSATHYAESVKGRFIISRDDNGNSLTLEMNSLKTEDTAEYYCAQNYYGSTYDYWGQGTLVTVS
VL: EIVLTQSPDFQSVTPKEKVTITCRASQFVGSSIHWYQQKPDQSPKLLIKYASESMSGVPSRFSGSGSGTDFTFTISSLEAEDAATYYCQQSHSWPFTFGPGTKVDIK
notes: Fab, E. coli lysate
- binding result: binds

B13: SEQ ID NO 26 (Fab, V domains shown)
VH: EVQLVESGGGLVQPGGSLRLSCRASQFTFSNHYMNWVRQAPGKGLEWIGEIRSKSIYSATHYAESVKGRFIISRDDNKNDLTLEMNSLKTEDTAEYYCARNYYGSTYDYWGQGTLVTVS
VL: EIVLTQSPDFQSVTPKEKVTITCRASQFVGSSIHWYQQKPDQSPKLLIKYASESMSGVPSRFSGSGSGTDFTFTISSLEAEDAATYYCQQSHSWPFTFGPGTKVDIK
notes: Fab, E. coli lysate
- binding result: binds

B14: SEQ ID NO 25 (Fab, V domains shown)
VH: EVQLVESGGGLVQPGGSLRLSCRASQFIFSNHYMNWVRQAPGKGLEWIGEIRSKSINSATHYAESVKGRFIISRDGNKTSLYLEMNSLKTEDTAEYYCAQNYYGSTPDYWGQGTLVTVS
VL: EIVLTQSPDFQSVTPKEKVTITCRASQFVGSSIHWYQQKPDQSPKLLIKYASESMSGVPSRFSGSGSGTDFTFTISSLEAEDAATYYCQQSHSWPFTFGPGTKVDIK
notes: Fab, E. coli lysate
- binding result: binds

B15: SEQ ID NO 17 (Fab, V domains shown)
VH: EVQLTESGGGLVQPGGSLRLSCRASGFTFSNHWMNWVRQAPGKGLEWIGEIRSKSSYSATHYAESVKGRFIISRDDNKTSLYLEMNSLKTEDTAEYYCARNYYGSTPDYWGQGTLVTVS
VL: EIVLTQSPDFQSVTPKEKVTITCRASQFVGSSIHWYQQKPDQSPKLLIKYASESMSGVPSRFSGSGSGTDFTFTISSLEAEDAATYYCQQSHSWPFTFGPGTKVDIK
notes: Fab, E. coli lysate
- binding result: binds

B16: SEQ ID NO 23 (Fab, V domains shown)
VH: EVQLTESGGGLVQPGGSLRLSCAASGSIFSNHWMNWVRQAPGKGLEWIGEIRSKSIYGATHYAESVKGRFIISRDDNGTDLYLEMNSLKTEDTAEYYCARNYYGSTYDYWGQGTLVTVS
VL: EIVLTQSPDFQSVTPKEKVTITCRASQFVGSSIHWYQQKPDQSPKLLIKYASESMSGVPSRFSGSGSGTDFTFTISSLEAEDAATYYCQQSHSWPFTFGPGTKVDIK
notes: Fab, E. coli lysate
- binding result: binds

B17: SEQ ID NO 20 (Fab, V domains shown)
VH: EVQLVESGGGLVQPGGSLRLSCRASGFTFSNHYMNWVRQAPGKGLEWIGEIRSKSSNSATSYAESVKGRFIISRDDNGNDLTLEMNSLKTEDTAEYYCAQNYYGSTPDYWGQGTLVTVS
VL: EIVLTQSPDFQSVTPKEKVTITCRASQFVGSSIHWYQQKPDQSPKLLIKYASESMSGVPSRFSGSGSGTDFTFTISSLEAEDAATYYCQQSHSWPFTFGPGTKVDIK
notes: Fab, E. coli lysate
- binding result: binds

B18: SEQ ID NO 21 (Fab, V domains shown)
VH: EVQLTESGGGLVQPGGSLRLSCAASQFTFSNHWMNWVRQAPGKGLEWIGEIRSKSIYGATHYAESVKGRFIISRDDNGNDLYLEMNSLKTEDTAEYYCARNYYGSTYDYWGQGTLVTVS
VL: EIVLTQSPDFQSVTPKEKVTITCRASQFVGSSIHWYQQKPDQSPKLLIKYASESMSGVPSRFSGSGSGTDFTFTISSLEAEDAATYYCQQSHSWPFTFGPGTKVDIK
notes: Fab, E. coli lysate
- binding result: binds

B19: SEQ ID NO 8 (Fab, V domains shown)
VH: EVQLTESGGGLVQPGGSLRLSCRASGSTFSNHYMNWVRQAPGKGLEWIGEIRSKSINGATHYAESVKGRFIISRDGNGNDLYLEMNSLKTEDTAEYYCAQNYYGSTYDYWGQGTLVTVS
VL: EIVLTQSPDFQSVTPKEKVTITCRASQFVGSSIHWYQQKPDQSPKLLIKYASESMSGVPSRFSGSGSGTDFTFTISSLEAEDAATYYCQQSHSWPFTFGPGTKVDIK
notes: Fab, E. coli lysate
- binding result: binds
